{
  "source": "the supplement of paper PMC10567573",
  "parents": {"B1": {"name": "CAMK2A (parent)", "chain": "CIQQILEAVLHCHQMGVVHRDLKP"}},
  "data": [
    {"variants_of": "B1", "assay": "protein stability index of a GFP-peptide fusion (GPS, HEK-293T) (PSI 1-6); higher = more stable", "conditions": "c terminus: a fixed tail appended", "values": [
      {"variant": "CIQQILEAVLHCHQMGVVKRDLKP", "protein stability index": 2.34},
      {"variant": "CIQQILEAVLHCHQMGVVYRDLKP", "protein stability index": 2.79},
      {"variant": "CIQQILEAVLHCHQMGVVWRDLKP", "protein stability index": 3.38},
      {"variant": "CIQQILEAVLHCHQMGVVTRDLKP", "protein stability index": 3.67},
      {"variant": "CIQQILEAVLHCHQMGVVDRDLKP", "protein stability index": 2.72},
      {"variant": "CIQQILEAVLHCHQMGTVHRDLKP", "protein stability index": 3.89},
      {"variant": "CIQQILEAVLHCHQMGGVHRDLKP", "protein stability index": 3.75},
      {"variant": "CIQQILEAVLHCHQMGAVHRDLKP", "protein stability index": 1.8},
      {"variant": "CIQQILEAVLHCHQMGFVHRDLKP", "protein stability index": 1.59},
      {"variant": "CIQQILEAVLHCHQMGCVHRDLKP", "protein stability index": 2.21},
      {"variant": "CIQQILEAVLHCHQMGQVHRDLKP", "protein stability index": 2.79},
      {"variant": "CIQQILEAVLHCHQMGRVHRDLKP", "protein stability index": 3.99},
      {"variant": "CIQQILEAVLHCHQMGLVHRDLKP", "protein stability index": 2.42},
      {"variant": "CIQQILEAVLHCHQMGDVHRDLKP", "protein stability index": 2.57},
      {"variant": "CIQQILEAVLHCHQMGMVHRDLKP", "protein stability index": 2.44},
      {"variant": "CIQQILEAVLHCHQMGPVHRDLKP", "protein stability index": 2.65},
      {"variant": "CIQQILEAVLHCHQMGNVHRDLKP", "protein stability index": 3.21},
      {"variant": "CIQQILEAVLHCHQMGHVHRDLKP", "protein stability index": 1.99},
      {"variant": "CIQQILEAVLHCHQMGYVHRDLKP", "protein stability index": 3.53},
      {"variant": "CIQQILEAVLHCHQMGEVHRDLKP", "protein stability index": 2.01},
      {"variant": "CIQQILEAVLHCHQMGIVHRDLKP", "protein stability index": 1.95},
      {"variant": "CIQQILEAVLHCHKMGVVHRDLKP", "protein stability index": 3.21},
      {"variant": "CIQQILEAVLHCHNMGVVHRDLKP", "protein stability index": 1.28},
      {"variant": "CIQQILEAVLHCHCMGVVHRDLKP", "protein stability index": 2.78},
      {"variant": "CIQQILEAVLHCHTMGVVHRDLKP", "protein stability index": 3.88},
      {"variant": "CIQQILEAVLHCHWMGVVHRDLKP", "protein stability index": 2.76},
      {"variant": "CIQQILEAVLHCHRMGVVHRDLKP", "protein stability index": 1.94},
      {"variant": "CIQQILEAVLHCHSMGVVHRDLKP", "protein stability index": 2.83},
      {"variant": "CIQQILEAVLHCHHMGVVHRDLKP", "protein stability index": 2.38},
      {"variant": "CIQQILEAVLHCHPMGVVHRDLKP", "protein stability index": 2},
      {"variant": "CIQQILEAVLHCHYMGVVHRDLKP", "protein stability index": 3.42},
      {"variant": "CIQQILEAVLHCHEMGVVHRDLKP", "protein stability index": 3.49},
      {"variant": "CIQQILEAVLHCHLMGVVHRDLKP", "protein stability index": 3.6},
      {"variant": "CIQQILEAVLHCHDMGVVHRDLKP", "protein stability index": 3.09},
      {"variant": "CIQQILEAVLHCHFMGVVHRDLKP", "protein stability index": 2.94},
      {"variant": "CIQQILEAVLHCHIMGVVHRDLKP", "protein stability index": 2.86},
      {"variant": "CIQQILEAVLHCHQMGVVHRDLLP", "protein stability index": 2.73},
      {"variant": "CIQQILEAVLHCHQMGVVHRDLSP", "protein stability index": 1.65},
      {"variant": "CIQQILEAVLHCHQMGVVHRDLEP", "protein stability index": 2.61},
      {"variant": "CIQQILEAVLHCHQMGVVHRDLYP", "protein stability index": 3.71},
      {"variant": "CIQQILEAVLHCHQMGVVHRDLRP", "protein stability index": 3.33},
      {"variant": "CIQQILEAVLHCHQMGVVHRDLDP", "protein stability index": 3.12},
      {"variant": "CIQQILEAVLHCHQMGVVHRDLWP", "protein stability index": 3.83},
      {"variant": "CIQQILEAVLHCHQMGVVHRDLCP", "protein stability index": 3.94},
      {"variant": "CIQQILEAVLHCHQMGVVHRDLHP", "protein stability index": 3.03},
      {"variant": "CIQQILEAVLHCHQMGVVHRDLPP", "protein stability index": 2.63},
      {"variant": "CIQQILEAVLHCHQMGVVHRDLNP", "protein stability index": 3.36},
      {"variant": "CIQQILEAVLHCHQMGVVHRDLVP", "protein stability index": 1.76},
      {"variant": "CIQQILEAVLHCHQMGVVHRDLIP", "protein stability index": 2.2},
      {"variant": "CIQQILEAVLHCHQMGVVHRWLKP", "protein stability index": 3.37},
      {"variant": "CIQQILEAVLHCHQMGVVHRMLKP", "protein stability index": 2.17},
      {"variant": "CIQQILEAVLHCHQMGVVHRKLKP", "protein stability index": 4.29},
      {"variant": "CIQQILEAVLHCHQMGVVHRRLKP", "protein stability index": 2.75},
      {"variant": "CIQQILEAVLHCHQMGVVHRILKP", "protein stability index": 3.1},
      {"variant": "CIQQILEAVLHCHQMGVVHRGLKP", "protein stability index": 2.28},
      {"variant": "CIQQILEAVLHCHQMGVVHRALKP", "protein stability index": 4.17},
      {"variant": "CIQQILEAVLHCHQMGVVHRNLKP", "protein stability index": 4.66},
      {"variant": "CIQQILEAVLHCHQMGVVHRCLKP", "protein stability index": 2.86},
      {"variant": "CIQQILEAVLHCHQMGVVHRLLKP", "protein stability index": 3.01},
      {"variant": "CIQQILEAVLHCHQMGVVHRSLKP", "protein stability index": 1.66},
      {"variant": "CIQQILEAVLHCHQMGVVHRHLKP", "protein stability index": 2.62},
      {"variant": "CIQQILEAVLHCHQMGVVHRTLKP", "protein stability index": 2.36},
      {"variant": "CIQQILEAVLHCHQMGVVHRFLKP", "protein stability index": 2.97},
      {"variant": "CIQQILEAVLHCHQMGVVHRQLKP", "protein stability index": 2.22},
      {"variant": "CIQQILEAVLHCHQMGVVHRPLKP", "protein stability index": 2.07},
      {"variant": "CIQQILEAVLHCHQMGVTHRDLKP", "protein stability index": 2.33},
      {"variant": "CIQQILEAVLHCHQMGVDHRDLKP", "protein stability index": 2.78},
      {"variant": "CIQQILEAVLHCHQMGVRHRDLKP", "protein stability index": 1.68},
      {"variant": "CIQQILEAVLHCHQMGVHHRDLKP", "protein stability index": 3.82},
      {"variant": "CIQQILEAVLHCHQMGVKHRDLKP", "protein stability index": 2.97},
      {"variant": "CIQQILEAVLHCHQMGVCHRDLKP", "protein stability index": 2.28},
      {"variant": "CIQQILEAVLHCHQMGVSHRDLKP", "protein stability index": 1.92},
      {"variant": "CIQQILEAVLHCHQMGVNHRDLKP", "protein stability index": 2.84},
      {"variant": "CIQQILEAVLHCHQMGVFHRDLKP", "protein stability index": 1.78},
      {"variant": "CIQQILEAVLHCHQMGVIHRDLKP", "protein stability index": 2},
      {"variant": "CIQQILEAVLHCHQMGVEHRDLKP", "protein stability index": 1.63},
      {"variant": "CIQQILEAVLHCHQMGVQHRDLKP", "protein stability index": 3.46},
      {"variant": "CIQQILEAVLHCHQMGVGHRDLKP", "protein stability index": 2.31},
      {"variant": "CIQQILEAVLHCHQMGVYHRDLKP", "protein stability index": 2.35},
      {"variant": "CIQQILEAVLHCHQMGVPHRDLKP", "protein stability index": 2.35},
      {"variant": "CIQQILEAVLHCHQMGVAHRDLKP", "protein stability index": 2.83},
      {"variant": "CIQQILEAVLHCHQMGVVHNDLKP", "protein stability index": 1.52},
      {"variant": "CIQQILEAVLHCHQMGVVHWDLKP", "protein stability index": 3.1},
      {"variant": "CIQQILEAVLHCHQMGVVHLDLKP", "protein stability index": 2.54},
      {"variant": "CIQQILEAVLHCHQMGVVHTDLKP", "protein stability index": 3.37},
      {"variant": "CIQQILEAVLHCHQMGVVHDDLKP", "protein stability index": 2.72},
      {"variant": "CIQQILEAVLHCHQMGVVHIDLKP", "protein stability index": 1.85},
      {"variant": "CIQQILEAVLHCHQMGVVHCDLKP", "protein stability index": 2.37},
      {"variant": "CIQQILEAVLHCHQMGVVHEDLKP", "protein stability index": 3.3},
      {"variant": "CIQQILEAVLHCHQMGVVHGDLKP", "protein stability index": 2.37},
      {"variant": "CIQQILEAVLHCHQMGVVHYDLKP", "protein stability index": 2.17},
      {"variant": "CIQQILEAVLHCHQMGVVHKDLKP", "protein stability index": 2.66},
      {"variant": "CIQQILEAVLHCHQMGVVHFDLKP", "protein stability index": 1.97},
      {"variant": "CIQQILEAVLHCHQMGVVHPDLKP", "protein stability index": 1.77}
    ]}
  ]
}
